In patent publication US20250346668A1 (GENOR BIOPHARMA, published 2025):

What follows are binders tested against T1, human CD3e/g antigen (ACRO, catalog number CDG-H52W5) (human, UniProt P07766 23-126; P09693 23-116) (assay: SPR (Biacore 8K), antibody captured via anti-human Fc).
T1 construct: Bought reagent used as the Biacore analyte; also called hCD3e/g
Procedure: The equilibrium dissociation constant of binding of CD3 antibodies to human CD3e/g antigen (purchased from ACRO, catalog number CDG-H52W5) was determined by kinetic binding method using Biacore 8K (GE) system. Through the capture method, the carboxylated dextran surface of CM5 chip was first activated with NHS (N-hydroxysuccinimide) and EDC (1-(3-dimethylaminopropyl)-3-ethylcarbodiimide hydrochloride), and then added with an anti-human IgG (Fc) antibody, the free amino group of which could form an amide bond with the activated carboxyl group, thereby being fixed on the chip surface. The anti-human IgG (Fc) antibody could bind to the Fc end of CD3 antibodies to capture the antibodies, and then a series of concentrations of antigen were added to obtain the binding and dissociation curves of antibody and antigen, and the corresponding kinetic constants were calculated by Biacore Evaluation software, as shown in the table below.

Row | Kd [nM] | koff [s⁻¹] | kon [M⁻¹ s⁻¹] | Binder
1 | 5.85 | 0.00225 | 385000 | hAb007-17 (antibody, V domains shown, Humanized; constant regions not specified) VH: QVQLVQSGAEVKKPGASVKVSCKASGSTFTDNYIHWVRQAPGQRLEWMGWIYPGSVNIKYNEKFKDRVTITRDTSASTAYMELSSLRSEDTAVYYCARDISRYYFDYWGQGTTVTVSS VL: DIVMTQSPDSLAVSLGERATINCKSSQSLLNSRTRKNYLAWYQQKPGQPPKLLIYWASTRESGVPDRFSGSGSGTDFTLTISSLQAEDVAVYYCKQSFILRTFGGGTKLEIK
2 | 9.24 | 0.0043 | 465000 | hAb007-25 (antibody, V domains shown, Humanized; constant regions not specified) VH: QVQLVQSGAEVKKPGASVKVSCKASGSTFTDNYIHWVRQAPGQRLEWIGWIYPGSVNIKYNEKFKDRATITADTSASTAYMELSSLRSEDTAVYYCARDISRYYFDYWGQGTTVTVSS VL: DIVMTQSPDSLAVSLGERATINCKSSQSLLNSRTRKNYLAWYQQKPGQPPKLLIYWASTRESGVPDRFSGSGSGTDFTLTISSLQAEDVAVYYCKQSFILRTFGGGTKLEIK
3 | 11.8 | 0.00494 | 420000 | hAb007-28 (antibody, V domains shown, Humanized; constant regions not specified) VH: QVQLVQSGAEVKKPGASVKVSCKASGSTFTDNYIHWVRQAPGQRLEWIGWIYPGSVNIKYNEKFKDRATITADTSASTAYMELSSLRSEDTAVYYCARDISRYYFDYWGQGTTVTVSS VL: DIVMTQSPDSLAVSLGERATMNCKSSQSLLNSRTRKNYLAWYQQKPGQPPKLLIYWASTRESGVPDRFTGSGSGTDFTLTISSLQAEDVAVYYCKQSFILRTFGGGTKLEIK
4 | 11.1 | 0.00375 | 337000 | hAb007-20 (antibody, V domains shown, Humanized; constant regions not specified) VH: QVQLVQSGAEVKKPGASVKVSCKASGSTFTDNYIHWVRQAPGQRLEWMGWIYPGSVNIKYNEKFKDRVTITRDTSASTAYMELSSLRSEDTAVYYCARDISRYYFDYWGQGTTVTVSS VL: DIVMTQSPDSLAVSLGERATMNCKSSQSLLNSRTRKNYLAWYQQKPGQPPKLLIYWASTRESGVPDRFTGSGSGTDFTLTISSLQAEDVAVYYCKQSFILRTFGGGTKLEIK
5 | 13.3 | 0.00594 | 446000 | hAb007-22 (antibody, V domains shown, Humanized; constant regions not specified) VH: QVQLVQSGAEVKKPGASVKVSCKASGSTFTDNYIHWVRQAPGQRLEWIGWIYPGSVNIKYNEKFKDRVTITADTSASTAYMELSSLRSEDTAVYYCARDISRYYFDYWGQGTTVTVSS VL: DIVMTQSPDSLAVSLGERATINCKSSQSLLNSRTRKNYLAWYQQKPGQPPKLLIYWASTRESGVPDRFTGSGSGTDFTLTISSLQAEDVAVYYCKQSFILRTFGGGTKLEIK
6 | 6.01 | 0.00241 | 401000 | hAb007-18 (antibody, V domains shown, Humanized; constant regions not specified) VH: QVQLVQSGAEVKKPGASVKVSCKASGSTFTDNYIHWVRQAPGQRLEWMGWIYPGSVNIKYNEKFKDRVTITRDTSASTAYMELSSLRSEDTAVYYCARDISRYYFDYWGQGTTVTVSS VL: DIVMTQSPDSLAVSLGERATINCKSSQSLLNSRTRKNYLAWYQQKPGQPPKLLIYWASTRESGVPDRFTGSGSGTDFTLTISSLQAEDVAVYYCKQSFILRTFGGGTKLEIK
7 | 9.32 | 0.00317 | 340000 | hAb007-19 (antibody, V domains shown, Humanized; constant regions not specified) VH: QVQLVQSGAEVKKPGASVKVSCKASGSTFTDNYIHWVRQAPGQRLEWMGWIYPGSVNIKYNEKFKDRVTITRDTSASTAYMELSSLRSEDTAVYYCARDISRYYFDYWGQGTTVTVSS VL: DIVMTQSPDSLAVSLGERATMNCKSSQSLLNSRTRKNYLAWYQQKPGQPPKLLIYWASTRESGVPDRFSGSGSGTDFTLTISSLQAEDVAVYYCKQSFILRTFGGGTKLEIK
8 | 12 | 0.00565 | 470000 | hAb007-26 (antibody, V domains shown, Humanized; constant regions not specified) VH: QVQLVQSGAEVKKPGASVKVSCKASGSTFTDNYIHWVRQAPGQRLEWIGWIYPGSVNIKYNEKFKDRATITADTSASTAYMELSSLRSEDTAVYYCARDISRYYFDYWGQGTTVTVSS VL: DIVMTQSPDSLAVSLGERATINCKSSQSLLNSRTRKNYLAWYQQKPGQPPKLLIYWASTRESGVPDRFTGSGSGTDFTLTISSLQAEDVAVYYCKQSFILRTFGGGTKLEIK
9 | 9.85 | 0.00415 | 421000 | hAb007-29 (antibody, V domains shown, Humanized; constant regions not specified) VH: QVQLVQSGAEVKKPGASVKVSCKASGSTFTDNYIHWVKQAPGQRLEWIGWIYPGSVNIKYNEKFKDRATITADTSATTAYMELSSLRSEDTAVYYCARDISRYYFDYWGQGTTVTVSS VL: DIVMTQSPDSLAVSLGERATINCKSSQSLLNSRTRKNYLAWYQQKPGQPPKLLIYWASTRESGVPDRFSGSGSGTDFTLTISSLQAEDVAVYYCKQSFILRTFGGGTKLEIK
10 | 6.16 | 0.00258 | 419000 | hAb007-24 (antibody, V domains shown, Humanized; constant regions not specified) VH: QVQLVQSGAEVKKPGASVKVSCKASGSTFTDNYIHWVRQAPGQRLEWIGWIYPGSVNIKYNEKFKDRVTITADTSASTAYMELSSLRSEDTAVYYCARDISRYYFDYWGQGTTVTVSS VL: DIVMTQSPDSLAVSLGERATMNCKSSQSLLNSRTRKNYLAWYQQKPGQPPKLLIYWASTRESGVPDRFTGSGSGTDFTLTISSLQAEDVAVYYCKQSFILRTFGGGTKLEIK
11 | 6.59 | 0.0029 | 439000 | hAb007-23 (antibody, V domains shown, Humanized; constant regions not specified) VH: QVQLVQSGAEVKKPGASVKVSCKASGSTFTDNYIHWVRQAPGQRLEWIGWIYPGSVNIKYNEKFKDRVTITADTSASTAYMELSSLRSEDTAVYYCARDISRYYFDYWGQGTTVTVSS VL: DIVMTQSPDSLAVSLGERATMNCKSSQSLLNSRTRKNYLAWYQQKPGQPPKLLIYWASTRESGVPDRFSGSGSGTDFTLTISSLQAEDVAVYYCKQSFILRTFGGGTKLEIK
12 | 7.11 | 0.00316 | 445000 | hAb007-30 (antibody, V domains shown, Humanized; constant regions not specified) VH: QVQLVQSGAEVKKPGASVKVSCKASGSTFTDNYIHWVKQAPGQRLEWIGWIYPGSVNIKYNEKFKDRATITADTSATTAYMELSSLRSEDTAVYYCARDISRYYFDYWGQGTTVTVSS VL: DIVMTQSPDSLAVSLGERATINCKSSQSLLNSRTRKNYLAWYQQKPGQPPKLLIYWASTRESGVPDRFTGSGSGTDFTLTISSLQAEDVAVYYCKQSFILRTFGGGTKLEIK
13 | 5.26 | 0.00225 | 427000 | hAb007-31 (antibody, V domains shown, Humanized; constant regions not specified) VH: QVQLVQSGAEVKKPGASVKVSCKASGSTFTDNYIHWVKQAPGQRLEWIGWIYPGSVNIKYNEKFKDRATITADTSATTAYMELSSLRSEDTAVYYCARDISRYYFDYWGQGTTVTVSS VL: DIVMTQSPDSLAVSLGERATMNCKSSQSLLNSRTRKNYLAWYQQKPGQPPKLLIYWASTRESGVPDRFSGSGSGTDFTLTISSLQAEDVAVYYCKQSFILRTFGGGTKLEIK
14 | 10 | 0.00427 | 427000 | hAb007-27 (antibody, V domains shown, Humanized; constant regions not specified) VH: QVQLVQSGAEVKKPGASVKVSCKASGSTFTDNYIHWVRQAPGQRLEWIGWIYPGSVNIKYNEKFKDRATITADTSASTAYMELSSLRSEDTAVYYCARDISRYYFDYWGQGTTVTVSS VL: DIVMTQSPDSLAVSLGERATMNCKSSQSLLNSRTRKNYLAWYQQKPGQPPKLLIYWASTRESGVPDRFSGSGSGTDFTLTISSLQAEDVAVYYCKQSFILRTFGGGTKLEIK
15 | 7.62 | 0.0032 | 419000 | hAb007-32 (antibody, V domains shown, Humanized; constant regions not specified) VH: QVQLVQSGAEVKKPGASVKVSCKASGSTFTDNYIHWVKQAPGQRLEWIGWIYPGSVNIKYNEKFKDRATITADTSATTAYMELSSLRSEDTAVYYCARDISRYYFDYWGQGTTVTVSS VL: DIVMTQSPDSLAVSLGERATMNCKSSQSLLNSRTRKNYLAWYQQKPGQPPKLLIYWASTRESGVPDRFTGSGSGTDFTLTISSLQAEDVAVYYCKQSFILRTFGGGTKLEIK
